{"source": "patent US6555105", "about": "(GlaxoSmithKline, dated 2003)", "molecular_target": "T1, recombinant CC-CKR1 receptor (UniProt P32246 1-355, limits assumed)", "T1 construct": "whole, on cells; The assay used either THP-1 cells or COS cells expressing recombinant CC-CKR1; also called CCKR1 receptors", "T1 sequence (looked up)": "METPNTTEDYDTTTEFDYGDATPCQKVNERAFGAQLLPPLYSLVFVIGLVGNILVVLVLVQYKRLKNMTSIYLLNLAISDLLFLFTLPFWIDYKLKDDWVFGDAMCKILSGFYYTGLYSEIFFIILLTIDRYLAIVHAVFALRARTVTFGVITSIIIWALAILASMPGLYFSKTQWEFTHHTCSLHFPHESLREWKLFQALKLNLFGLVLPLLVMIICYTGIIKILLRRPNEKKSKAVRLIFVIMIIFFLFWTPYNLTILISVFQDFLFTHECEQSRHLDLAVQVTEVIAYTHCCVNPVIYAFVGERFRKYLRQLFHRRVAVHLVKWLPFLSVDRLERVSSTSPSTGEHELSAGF", "test": "radioligand competition on cells (THP-1 or COS expressing CC-CKR1), [125I]RANTES tracer, competitor Met-RANTES", "method": "The competition assay was carried out in 96 well multi-screen filter-phase (Millipore, MADV N6500) which had been pretreated for 2 h with 50 mM HEPES buffer, pH 7.2 containing 1 mM CaCl_2, 5 mM MgCl_2, and 0.5% BSA, (binding buffer). The assay was performed using either THP-1 cells or COS cells expressing the recombinant CC-CKR1 receptor (Neote, K., DiGregorio, Mak, J. Y., Horuk, R., and Schall, T. J., (1993) Molecular cloning, functional expression, and signalling characteristics of a C—C chemokine receptor, *Cell* 72 415–425; Gao, J. L., et al, *J. Exp. Med.* 177 1421–7 (1993)). Each well contained 10^5 cells in a volume of 150 μl of binding buffer containing 0.4 nM [I^125]Mip-1a or 0.4 nM [I^125]RANTES (new England Nuclear, Nex 277) and varying concentrations of competing Met-RANTES. Assays were performed in triplicate. After 90 min incubation at 4° C., the cells were washed 4 times with 200 μl ice cold binding buffer containing 0.5 M NaCl which was removed by aspiration. The filters were dried, 3.5 ml Ultima Gold Scintillation fluid added (Packard) and counted on a Beckman LS5000 counter."}
{"binder": "methionylated RANTES (ligand, also called Met-RANTES) MSPYSSDTTPCCFAYIARPLPRAHIKEYFYTSGKCSNPAVVFVTRKNRQVCANPEKKWVREYINSLEMS", "values": [{"measurement": "binding result", "value": "binds"}]}
